From article PMC6702053 (Developmental cell, 2019)
Changes are numbered by the printed parent chain.

Legend:
Experiment in all cases: pull-down
[1] = molecular target: T1, GST-PI31-S168D (phospho-mimetic mutant) (Drosophila melanogaster, UniProt Q9V637 1-270, S168D)
T1 sequence (looked up): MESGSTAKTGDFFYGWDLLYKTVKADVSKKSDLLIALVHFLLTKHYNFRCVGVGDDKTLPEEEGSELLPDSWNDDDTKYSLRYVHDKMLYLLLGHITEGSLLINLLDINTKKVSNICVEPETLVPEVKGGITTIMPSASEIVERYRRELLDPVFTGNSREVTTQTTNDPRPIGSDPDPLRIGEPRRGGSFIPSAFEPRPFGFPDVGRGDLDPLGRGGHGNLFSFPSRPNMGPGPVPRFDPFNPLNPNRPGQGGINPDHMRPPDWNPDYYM

[2] = molecular target: T2, GST-tagged wild-type PI31 (GST-PI31-WT) (Drosophila melanogaster, UniProt Q9V637 1-270)
T2 sequence (looked up): T1 sequence (looked up) with D168S

[3] = molecular target: T3, GST-PI31-S168E (phospho-mimetic mutant) (Drosophila melanogaster, UniProt Q9V637 1-270, S168E)
T3 sequence (looked up): T1 sequence (looked up) with D168E

binding result [1]: binds
binding result [2]: binds
binding result [3]: binds
B1: recombinant FLAG-dDYNLL1 expressed in E. coli (natural protein, Drosophila melanogaster, UniProt Q24117 1-89, looked up)
chain: MSDRKAVIKNADMSEEMQQDAVDCATQALEKYNIEKDIAAYIKKEFDKKYNPTWHCIVGRNFGSYVTHETRHFIYFYLGQVAILLFKSG
